The values that follow come from the PETadex activity labels.

The labels stand for the following.
B1: unnamed (protein)
chain: MTIRPFVRNAVLAAGLLVGAASAQAQVAVFQENFSNGLGAFTASGTVSTGTGAARLQGCYGCTDGQIVSSAISTQGFTNLSLSFDRVTSGLYIGESGTAEFSVDGTNWTVVESTRVTSPGRVTFDLPASAAGQAALRLRFRIDARLSSETYTVDNVELTGTVGDTGGGTPGANPYAKGPDPTVALLEAGTGPFTYTRTTVSRTAASGYGGGTIYHPTGVAGPFGAIAISPGYTAYQSSISWLGERLASHGFVVITIDTFTTSDQPSSRATQLMAALRQLVAYGNTSSHPIYGKVDPNRLGVMGHSMGGGGSLIAARDNPSLKAAVPLTPWNTSSNFTAVQVPTLVVGCEADTVAPVAQHASPFYNNIPSTTKKAYLELANASHFCPVTGNGYTRLLGKYGVAWMKRFVDNDTRYSPFLCGAPHRADLSNGQLSAYRENCPY
B2: unnamed (protein)
chain: MRALLSPTRRRLMTRVSTLSTLPLRRVLCSLALSAVAAAASAQTAPPTSASLNATAGPLAVSSVAISGATGFGGGTIYYPQAAGSYGVIAISPGYGARGSSLAWLARRLATHGFVVAAINTTSTMDSPPSRGPQLMAALDHVVNKADANVRSRADGSRMAVMGHSAGGGGALVAARDNPTLKAAVALTPGSFGNFYSGVRVPTIIFGADGDTITPVTSQARPAYNSIPVTTPKAYGELNNATHLTPVSTNTPIGRYSVAWAKRFVDGDTRYS
B3: unnamed (protein)
chain: MRSSHVRIKKDKRATRMRSAPVSAREPTSARRVTHAQRADPLDRQRRQPMRFQQHASRLIKASILGSLVVLSAAATAQTNPFARGPNPTASALEATSGPFTVRNFTVSRPSGYGAGTVYYPTNAGGTVGAIAIVPGYTARQSSINWWGPRLASHGFVVITIDTNSTLDQPGSRSSQQMAALRQVVSLNGTSSSPIYNKVDTSRLGVMGWSMGGGGSLISAANNPSLKAAAPQAPWNTSTNFSSLTVPTLIFACENDSIAATRSHASPMYNSMRNNPRQYLEITRGSHSCANSGNSDRGLLGKKGVAWMKRYMDNDTRYTTFACQNPNTSRVSDFRVANCS
B4: unnamed (protein)
chain: MKSTQGSKFALSLLTAGTLLFSMSALGFNAPDPDPQPDPDPCEGDCGYTRGPDPTTSLLEASSGPYSVRTDSVSSRVSGFSGGTIYYPTGTSGRMGAIVVAPGFLSPESSISWWGPRLASHGFVVITVQINSGYDQPASRQAQMDAALDHVISESNSSSSPISGMVDSSRLGAMGWSMGGGGALRMAAGDRLSAAIPLAPWHSGRDNFDQIRTPTLIFACENDSVAPVRSHASPFYNDIPNSTSKAFFEINGGSHTCANGGRSNGDLLGRIGVSWMKRHIDQDTRYNQFLCGPNHESDGDISEYRGTCPL
B5: unnamed (protein)
chain: MHETNTRVRAGRACGCARAVRRVERGRVGRGRCLMRYRAFAWWWVCACLLLACGDTSGGNADETGPVTGQQPAAGASGQSASGTGGGTPAMPMSGGTSAGSAGRAGSAGMPPPAAGMGSMAGEGGTAGTDADAGASGVGGSAGGTSGVGGSAGSAGEGPDPEGPDPTTESASRAGPLNVESIPWTEFRNGPDFAGGTIWYPTDGEPPYPFVAIVPGFTAYESSIRSWGPFLASHNIVAITIDTNTTADQPPTRAAALLDALESVAAENSRSGSPLMDKLDESRQALMGWSMGGGGTLIAANRTPSLKAAISLCGWNPLGSYSMMTVPSLMFASLGDPLAGGQSQGFYRSIPDTTPKMLIEAGVADHFVANNPAYLNGLIGRYGLSWLKVFMVGDERYRQFLLEMPQGTTDYASNVE
B6: unnamed (protein)
chain: MKTSRTRRLALAAAALLLSVAAQAQSSNPYQRGPDPTAASLEASSGPFAVSTTTVSSASGFGGGTIYYPTNTEGPFAAIAVVPGFTGTQSSISWWGPRLASHGFVVITIDTNSTFDQPDSRATQLMAALNYVVSQSNTSSSPIYGKVDSNRLGVMGHSMGGGGTLIAARDNPTLKAAIPLAPWNSSTNFSSVTVPTLIIACENDTVAPVSSHASPFYNSIPSSTDKAYLEINGGDHFCANSGNSNKAILGKYGVAWMKRFLDNDTRYDPFLCGAPHQADGSAISEYRDNCPY
B7: unnamed (protein)
chain: MRKLLRRGPMRLLAVGLVIAVGVLATACDWRGPEPSDQLLTGTGPFGIGTISVPASAGFGGGTIYYPTGNPGPFAVVSFSPGFLEQSGAFPGWGNKLASHGFVAILFNTSNTGEFPDARSTEQRQALTYVINQGQNPSSPIFGLVDGNRTAVMGHSMGGGASLISAQADHTIDAVIPVAPWNGGTNFSGITSPTLVVACQSDSTAPVNSHASPFYNSIPSTTKKEYLSVAGGDHFCANDPSLVGGGNIGKYAVAFLKRWLDTDTRYDPWTCGASKATAGSVFNEVRSTCPW
B8: unnamed (protein)
chain: MKITAHKTARGVANFAKASLFVAALAVTSLANAQYQKGPDPTVSALERNGSFATRSTTVSRLSASGFGGGTIYYPTASGSYGAIAVSPGFTAYQSSISWIGERLSSHGFVVITIDTITTSDQPESRGNQLKAALDKVVSLSRTSSSPLYNKVDASRLGVAGHSMGGGGTLAAARDNPSYKAAVPLAPWHTTKSWSRVSVPTLIIGGSTDAIAGVALHSIPFYTSLPSSTKKAYMELSGEGHFYPQLPSNYPIVGRYMISWFKRFMDSDTRYSPFLCGAQHQADLRLFGPFSDYRENCPY
B9: unnamed (protein)
chain: MSAADRMCPFRTLLMLLGLSMMARPTRASMRRRGRHSSITTGDSMTHIAIGLRHWAQVAVLLASVAMSALAAAQNNPYAKGPDRTTADLEAELGSFAVASASIPRANASGFGGGTIYYPTASGSCGAISISPGYTATQVNIAWLGPRLASRGFVVITIDTFTTSDLPDSRATQLQAALNQAVSLSQTAGHVIYGKVDARRLAVAGDSLGGGGALLAGLNNPMLKAAVGLVPYSYTQNFSTEQVPTLMIGGQKDTTATPSKHAIAFYNSIPSTTDKAYMELAGADHYLPHRTQYFPVIGRYMIAWYKRFVDNDTRYSPFLCGAIQQADVANTALVSKYLQNCSY
B10: unnamed (protein)
chain: MPDADTGRRANRCGAGNPAEGNPVITTRKRLVRRLAALVLVAFALVACDIKGPDPTDAILTASSGPFGVGTLAVPTSAGFGGGTIYYPTGVDGPFAVISVAPGFTETASAVAEWGPRLASHGFVTIVFNTSNTFENPSTRSTEQRQALTYTINQSNTAGSPIAGLVDGNRRGVAGHSMGGGGTLISEQADSTIRAGVPLAPWNTSPDFPDITVPTLFLACQNDSIAPVANHASPMYESIPATTHKSFVSFAGGDHFCANSPTGGSSNAGKFAVAFFKKFLDGDTRYDPWVCGASKPAVNSAINEVRSTCPF
B11: unnamed (protein)
chain: MNSHRASRLVRAALAAGALLLSAAASAQTNPYQRGPNPTASSLEASRGPFSVRSFTVSRPSGYGAGTVYYPTNAGGTVGAIAIVPGFTARQSSINWWGPRLASHGFVVITIDTNSTLDQPSSRSSQQMAALRQVATLSGTSSSPIYNKVDTSRLGVMGWSMGGGGSLISARNNPSLKAAAPQAPWNSSTNFSSVTVPTLIIACENDTIAPVNSHASPFYNSMSRNPKQFLEINGGSHSCANSGNSNQALLGKKGVAWMKRFMDNDTRYTSFACSNPNSTRVSDFRVASCS
B12: unnamed (protein)
chain: MTLTSTLRRQTRTTATATVLAAAAALALCAAPASAQQTGPNPTSSSLNATSGPFAVSSVSVVAPTGFGGGTIYYPTTAGQYGVVAISPGFTATESSIAWLGRRMATHGFVVVTINTLTTLDQPASRATQLMAALNHVVNSASSTVRSRVDPNRRAVAGHSMGGGGALIAAENNPGLKAALPLTPWNLTTNFSDVQVPTLIVGADGDTVAPAAIHARPFYASLSSSVRKAYAELNFSTHFTPNTTNTPIGRYGVTWMKRFVDGDTRYSTFLCGAEHNAYNTALVFERYSQNCPY
B13: unnamed (protein)
chain: MATFNQLMHWSLAGLAVSMLGACGGGGGGGTPDAPPVMTPAPLPAPIPAPLPPLPPPPPAPTACTTSCRGADPTPASVEADAGPYAVATLALTQANGAAAMVYYPTGSSESFGAVVTMPGWDGDQSNLQWLGPRLASNGFVVINVDTPARRGDFPDARARFGVQALDQVVTLSATPGNALSGKVDAARLGMVGHSMGGGAALVAARDHPGLFKAVVPLSPWYDQATRDFPSATPALVFVCTGDMTASVAGYALPVYDSLRSHKAYVEAAHVPVPGGDAHNCVRTGVANRPKLGKTVVSWLKLWLDGDPRYLPFVCGAQNPGTDAGFTNVWRSSCPF
B14: unnamed (protein)
chain: MKRTLSLRRLWQAMAACASLCIAAAASAQVGPDPTSAGLEASAGPFTVSTSSVSSYVRGFGGGTIYYPSAAGQYGVVAISPGFTATQSSVAWLGRRLASHGLVVITINTNSVFDMPASRATQLMAALNHVVSGASSTIRSRVDSTRLAVSGHSMGGGGALIAAQNNPTLRASLPLTPWNNATNFDTVRVPTLIFGADGDTVASASSHARPFYASLPATTLKAYAELNNANHSTPNSTNTPIGRYSVAWMKRFVDADARYSPFLCGEPHRTYATPAVFDRYNQNCPY

Substrate in this data set: BHET
Conditions: 120 h.
For B1, the plate clearing entry was “clears the plate (z > 3 vs empty vector)”.
In the case of B2 it was “not clears the plate”; in that of B3, “not clears the plate”; in that of B4, “not clears the plate”.
On to B5, for which the plate clearing result is “not clears the plate”.
As to B6, the plate clearing entry is listed as “clears the plate (z > 3 vs empty vector)”.
Consider B7, for which the plate clearing result is on record as “not clears the plate”.
Then B8, with “not clears the plate”; and B9, with “not clears the plate”.
In the case of B10 it was “not clears the plate”; in that of B11, “not clears the plate”; in that of B12, “not clears the plate”.
Then B13, with “not clears the plate”.
Regarding B14, the plate clearing entry was “not clears the plate”.
